Measured values published in article PMC9908967 (Nature Communications, 2023).

Experiments:
α-cobratoxin = α-cobratoxin (Naja kaouthia (monocled cobra), UniProt P01391); experiment: SPR; BIAcore T100; […]; 10 mM HEPES, 150 mM NaCl, 3 mM EDTA, 0.05% P20, pH 7.4; 40 µL/min; 1:1 Langmuir model, global fit; details: both partners purified
α-elapitoxin = α-elapitoxin (Dendroaspis polylepis, UniProt P01396); experiment: as above; details: both partners purified
α-bungarotoxin = molecular target: T1, α-bungarotoxin (Bungarus multicinctus, UniProt P60615); experiment: SPR; details: both partners purified
T1 construct: source: bought: Latoxan SAS (L8115)

[1] = molecular target: T2, long neurotoxin from N. melanoleuca (Naja melanoleuca, UniProt P0DQQ2); experiment: native MS; details: one partner purified
T2 construct: source: in SEC fractions of N. melanoleuca whole venom (Latoxan L1318)

[2] = molecular target: long neurotoxin 4 from N. naja (Naja naja, UniProt P25672); experiment: native MS; details: one partner purified
[3] = molecular target: T3, long neurotoxin 2 from O. hannah (Ophiophagus hannah, UniProt A8N285); experiment: native MS; details: one partner purified
T3 construct: source: in SEC fractions of O. hannah whole venom (Latoxan L1357)

[4] = molecular target: T4, long neurotoxin 2 from N. melanoleuca (Naja melanoleuca, UniProt P01388); experiment: native MS; details: one partner purified
T4 construct: source: in SEC fractions of N. melanoleuca whole venom (Latoxan L1318)

Binder | Kd (α-cobratoxin) | koff (α-cobratoxin) | Kd (α-elapitoxin) | koff (α-elapitoxin) | binding result (α-bungarotoxin) | binding result [1] | binding result [2] | binding result [3] | binding result [4]
2554_01_D11 Fab (Fab, V domains shown, source: Expi293 cells, transient, purified (anti-CH1 resin)) VH: QVQLVQSGAEVKKPGSSVKVSCKASGGTFSSYAISWVRQAPGQGLEWMGGIIPIFGTANYAQKFQGRVTITADESTSTAYMELRSLRSDDTAVYYCARDNLGYCSGGSCYSDYYYYYMDVWGQGTLVTVSS VL: NFMLTQPRSVSESPGKTVTISCTRSSGSIGSDYVHWYQQRPGSSPTTVIYEDNQRPSGVPDRFSGSIDSSSNSASLTISGLKTEDEADYYCQSYDRSNHEVVFGGGTKLTVL | 1.78 nM | 0.000229 s⁻¹ | 1.69 nM | 0.000177 s⁻¹ | binds |  |  |  | 
2555_01_A01 Fab (Fab, V domains shown, source: Expi293 cells, transient, purified (anti-CH1 resin)) VH: QVQLVQSGAEVKKPGSSVKVSCKASGGTFSSYAISWVRQAPGQGLEWMGGIIPIFGTANYAQKFQGRVTITADESTSTAYMELRSLRSDDTAVYYCARDNLGYCSGGSCYSDYYYYYMDVWGQGTLVTVSS VL: SYELTQPPSVSVAPGRTATITCEGDNIGQQIVHWYQQKPGQAPVAVISSDSDRPSGIPERFSGSNSGNTATLTISRVEAGDEADYYCQVWDSGSDHVVFGGGTKVTVL | 8.41 nM | 0.0017 s⁻¹ | 1.81 nM | 0.000181 s⁻¹ |  |  |  |  | 
2554_01_D11 IgG (antibody, V domains shown, also called IgG 2554_01_D11; copies: 2 + 2) VH: QVQLVQSGAEVKKPGSSVKVSCKASGGTFSSYAISWVRQAPGQGLEWMGGIIPIFGTANYAQKFQGRVTITADESTSTAYMELRSLRSDDTAVYYCARDNLGYCSGGSCYSDYYYYYMDVWGQGTLVTVSS VL: NFMLTQPRSVSESPGKTVTISCTRSSGSIGSDYVHWYQQRPGSSPTTVIYEDNQRPSGVPDRFSGSIDSSSNSASLTISGLKTEDEADYYCQSYDRSNHEVVFGGGTKLTVL |  |  |  |  |  | binds | binds | binds | binds
